From article PMC10350915, “Development of a New Class of CXCR4-Targeting Radioligands Based on the Endogenous Antagonist EPI-X4 for Oncological Applications” (Journal of Medicinal Chemistry, 2023)
Square brackets hold non-standard residues; d marks the D form. Peptide text beside a SMILES is read from it. * marks the point of attachment. DOTA = O=C(O)CN1CCN(CC(=O)O)CCN(CC(=O)*)CCN(CC(=O)O)CC1

Assays:
[1] = format: in vitro ADME, human; details: human, plasma
Method: Representative radiochromatograms are provided in Figure S25 for ^177Lu-1, ^177Lu-2, and ^177Lu-7. This included ^177Lu-9 despite its fatty acid chain.
(§1) Figure 3 Stability of the ^177Lu ligands in human plasma at 37 °C, expressed as % of intact radioligand over time, assessed by radio-HPLC. The % of plasma protein binding (PPB) after 60 min incubation is provided in parenthesis and it is expressed as the % of radioligand in the protein fraction (pellet) versus the total activity in the plasma. TEXT PRINTED IN THE PICTURE: ^177Lu-1: PPB: 35% | ^177Lu-2: PPB: 22% | ^177Lu-5: PPB: 42% | ^177Lu-6: PPB: 38% | ^177Lu-7: PPB: 39% | ^177Lu-9: PPB: 37%
To 1 mL of fresh human plasma, previously equilibrated at 37 °C, 500 pmol (8–10 MBq) of each ^177Lu-labeled ligand was added. The mixture was incubated at 37 °C for different time points (0, 15, 30, 60, and 120 min). At each time point, a 100 μL aliquot was removed and treated with 1.5 excess (v/v) of acetonitrile, to precipitate plasma proteins, followed by centrifugation for 5 min at 3500 rpm. The supernatant was collected and the process of protein precipitation was repeated. Afterward, 100 μL from the supernatant was taken, diluted with water at a ratio of 1:10 (v/v), and injected into radio-HPLC. The radioligand (in)stability was assessed by quantifying the percentage of intact radioligand over time.

[2] = Shelf-life of 177Lu-labeled ligands at room temperature (radio-HPLC); format: physicochemical
Method: The shelf-life of each ^177Lu-labeled ligand was monitored at room temperature up to 24 h after radiolabeling.
The shelf-lives of ^177Lu-labeled ligands were assessed at room temperature (RT) in the buffer used for labeling, as described above. For the analysis, 5 μL was withdrawn at desired time points (0, 1, 2, 4, and 24 h) from the stock solution and mixed with 50 μL of the Ca-DTPA solution. 20 μL of this mixture was withdrawn and injected in RP-HPLC.

Ghost-CXCR4 cells = assay: Cellular uptake and distribution in Ghost-CXCR4 cells; format: cell-based, human; details: 37 °C, 60 min
Method: Figure 4 In vitro assessment in Ghost-CXCR4 cells at 37 °C. […] Each experiment was performed in triplicate. Results are means ± SD [% of applied activity] from a minimum of two separate experiments. […] Cellular uptake was interrupted at 15, 30, and 60 min by removing the medium and washing twice with ice-cold PBS. The cell surface-bound radioligand was obtained by washing cells twice with ice-cold glycine buffer (pH 2.8) followed by a collection of the internalized fraction after treating the cells with 1 M sodium hydroxide (NaOH). The activity in each fraction was measured in a γ-counter. […] The results were expressed as a percentage of the applied radioactivity after subtracting the nonspecific uptake.

Jurkat xenografts = format: in vivo, mouse; details: 1 h p.i., SPECT/CT or PET/CT
Method: The ability of the ^177Lu ligands to target CXCR4 in vivo was assessed by SPECT/CT imaging in Jurkat xenografts. […] 1 h after injection, the remaining amount of radioligand in the body (and vice versa, the washout) was quantified by measuring the total body activity (mouse) in a dose calibrator. The % of the radioligand remaining in the body after 1 h is reported in Figure 6A as % of the remaining activity in reference to the injected activity (100%).
Figure 6 SPECT/CT images as maximum intensity projections (MIPs) of Jurkat tumor-bearing mice at 1 h p.i. of ^177Lu-labeled ligands (200 pmol, ∼15 MBq). […] (B) Same SPECT/CT images of ^177Lu-1, ^177Lu-2, ^177Lu-5, and ^177Lu-6, adapted in a lower scale. T: tumor, L: liver, and K: kidneys. […] TEXT PRINTED IN THE PICTURE: (A) ^177Lu-1: Remaining Activity (% injected): 6 % | (A) ^177Lu-2: Remaining Activity (% injected): 7 % | (A) ^177Lu-5: Remaining Activity (% injected): 7 % | (A) ^177Lu-6: Remaining Activity (% injected): 8 % | (A) ^177Lu-7: Remaining Activity (% injected): 55 % | (A) ^177Lu-9: Remaining Activity (% injected): 94 %
The experimental protocol involving animals was approved by the Veterinary Office (Department of Health) of the Cantonal Basel-Stadt (Approval No. 30515) in accordance with the Swiss regulations for animal treatment. Female athymic nude-Foxn1^nu/Foxn1^+ mice (Envigo, The Netherlands), 4–6 weeks old, were injected subcutaneously with 10^7 Jurkat cells in a 200 μL (1:1) mixture of PBS and Matrigel (CorningMatrigelMembrane matrix, Fischer Scientific, Germany) on the right shoulder. The tumors were allowed to grow for 3–4 weeks before commencement of the experiments.
Nude mice bearing Jurkat xenografts were intravenously injected via the tail vein with ∼15 MBq (200 pmol) of the ^177Lu ligands and 8 MBq (200 pmol) of ^68Ga-7 were euthanized 1 h post injection (p.i.). The radioactivity in the syringe before and after injection was measured followed by measuring the amount of radioactivity remaining in the sacrificed mice. […]

[3] = format: in vitro ADME; details: human, plasma, plasma protein binding (PPB)
Method: as §1
For the determination of plasma protein binding (PPB), 100 μL from the plasma incubated with the ^177Lu ligand was removed and measured in a γ-counter (total radioactivity). Protein precipitation and separation followed, as described above. The supernatant and the protein pellet were then measured in a γ-counter. The percentage of plasma protein binding was calculated as the ratio between the protein-bound radioactivity and the total radioactivity in the plasma.

Structure (SMILES): CC[C@@H](C)[C@@H](N)C(=O)N[C@@H](CC(C)C)C(=O)N[C@@H](CCCNC(=N)N)C(=O)N[C@@H](Cc1c[nH]c2ccccc12)C(=O)N[C@@H](CO)C(=O)N[C@@H](CCCNC(=N)N)C(=O)N[C@@H](CCCCN)C(=O)N[C@@H](CCCCNC(=O)CN1CCN(CC(=O)O)CCN(CC(=O)O)CCN(CC(=O)O)CC1)C(N)=O [^177Lu-7, metal not drawn] (H-[dI]LRWSRKK(DOTA)-NH2; N-terminus assumed)
- metabolic stability in plasma (in words) [1]: high metabolic stability in plasma up to 4 h
- radiochemical purity (%) ([2]; 0 h after radiolabeling): 98 ± 1%
- radiochemical purity (%) ([2]; 1 h after radiolabeling): 95 ± 0%
- radiochemical purity (%) ([2]; 2 h after radiolabeling): 94 ± 0%
- radiochemical purity (%) ([2]; 4 h after radiolabeling): 88 ± 3%
- cellular uptake (% of the applied activity) (Ghost-CXCR4 cells): 7.90 ± 1.48%
- visualization of CXCR4-expressing tumor xenograft by imaging (Jurkat xenografts): accumulated and visualized the CXCR4-expressing tumor xenograft
- fraction unbound at 60 min [3]: 0.61
